Results: patent US5559019A, “Protein serine kinase, SRPK1” (The Regents of the University of California, priority 1994, dated 1996)

Substrate: Nc1ncnc2c1ncn2[C@@H]1O[C@H](COP(=O)(O)OP(=O)(O)OP(=O)(O)O)[C@@H](O)[C@H]1O
Experiment: SRPK1 kinase assay, determination of Km for ATP (double-reciprocal plots, SF2/ASF as substrate)
Format: biochemical, human
Settings: other: ATP titrated against four SF2/ASF concentrations (bacterially expressed SF2/ASF as substrate), pH 7.4, 30.0 °C
Protocol: FIG. 7 describes the kinetic properties of SRPK1. […] Different ATP concentrations were titrated against four SF2/ASF concentrations (.diamond-solid.0.05 μM; .circle-solid.0.1 μM; Δ0.05 μM; .diamond.0.7 μM). […] Five SF2/ASF concentrations (0.05 μM, 0.1 μM, 0.25 μM, 0.5 μM, and 1.0 μM) and four MBP concentrations (2.5 μM, 5.0 μM, 12.5 μM, and 25 μM) were used in the phosphorylation reactions. Saturating ATP (100 μM) and SRPK1 (27,000 units) were used in these reactions.
0.5 μg of purified SC35 or SF2/ASF was used as a substrate in a final volume of 20 μl kinase assay mixture containing 50 mM Tris-pH7.4, 10 mM MgCl2, 1 mM DTT, 2 μM ATP, and 2 μCi [^32 P-]ATP. The reaction was initiated by adding 2 μl of each column fraction and incubated at room temperature for 15 min. Proteins were, resolved in a 12.5% SDS gel. After staining and autoradiography, gel slices containing radioactive proteins were quantitated in a liquid scintillation counter. For saturation phosphorylation of SF2/ASF, 100 μM ATP was used, and the reaction was carried out at 30° C. for 2 hours.
SRPK1 is specific for splicing factors containing an SR domain as shown in EXAMPLE 4. Kinetic analyses were carried out to further characterize the kinase. […] The kinase activity depended on ATP concentration with a Km for ATP of 10 μM (FIG. 7A). […]

B1: SRPK1 (SR protein-specific kinase, 92 kD) purified from Hela cell S100 extracts, SEQ ID NO:2 (Homo sapiens) (protein)
chain: MERKVLALQARKKRTKAKKDKAQRKSETQHRGSAPHSESDLPEQEEEILGSDDDEQEDPNDYCKGGYHLVKIGDLFNGRYHVIRKLGWGHFSTVWLSWDIQGKKFVAMKVVKSAEHYTETALDEIRLLKSVRNSDPNDPNREMVVQLLDDFKISGVNGTHICMVFEVLGHHLLKWIIKSNYQGLPLPCVKKIIQQVLQGLDYLHTKCRIIHTDIKPENILLSVNEQYIRRLAAEATEWQRSGAPPPSGSAVSTAPQPKPADKMSKNKKKKLKKKQKRQAELLEKRMQEIEEMEKESGPGQKRPNKQEESESPVERPLKENPPNKMTQEKLEESSTIGQDQTLMERDTEGGAAEINCNGVIEVINYTQNSNNETLRHKEDLHNANDCDVQNLNQESSFLSSQNGDSSTSQETDSCTPITSEVSDTMVCQSSSTVGQSFSEQHISQLQESIRAEIPCEDEQEQEHNGPLDNKGKSTAGNFLVNPLEPKNAEKLKVKIADLGNACWVHKHFTEDIQTRQYRSLEVLIGSGYNTPADIWSTACMAFELATGDYLFEPHSGEEYTRDEDHIALIIELLGKVPRKLIVAGKYSKEFFTKKGDLKHITKLKPWGLFEVLVEKYEWSQEEAAGFTDFLLPMLELIPEKRATAAECLRHPWLNS
notes: SRPK1 PURIFICATION FROM HELA CELL S100 EXTRACTS; endogenous in cells; host or cells: HeLa cells (S100 extract; phosphocellulose P11, Phenyl Sepharose, Mono Q, Mono S)
- Km: 10 µM
